Paper PMC3688735

Molecular target: mKate
Experiment: SEC; gel filtration on a 1x90 cm Econo-column packed with Sephacryl-S200, equilibrated with 25 mM Tris-HCl pH 7.5, 150 mM NaCl; self-association of the purified fluorescent protein

mKate was tested, and the stoichiometry N was 2.
